Source: US20190161555A1 (ALLIGATOR BIOSCIENCE, published 2019)
Positions count from the first letter of the chain named. One block for each binder: values may come before it.

Experiments:
[1] = molecular target: T1, human OX40 overexpressed on CHO cells (human, UniProt P43489 29-214; P25942 194-277); assay: flow cytometry on CHO cells overexpressing human OX40, anti-huIgG-PE detection, MFI
T1 construct: extracellular domain;domain: transmembrane and intracellular part; also called hOX40; huOX40 (CHO)
T1 sequence (looked up): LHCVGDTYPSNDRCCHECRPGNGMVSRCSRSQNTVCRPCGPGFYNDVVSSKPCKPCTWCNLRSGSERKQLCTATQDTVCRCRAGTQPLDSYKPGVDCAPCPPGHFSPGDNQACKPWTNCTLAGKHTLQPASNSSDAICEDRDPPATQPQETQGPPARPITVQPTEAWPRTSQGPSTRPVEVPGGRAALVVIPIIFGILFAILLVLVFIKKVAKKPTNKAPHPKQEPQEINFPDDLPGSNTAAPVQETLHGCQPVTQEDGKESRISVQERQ
Protocol: The extracellular part of human OX40 was fused to the transmembrane and intracellular part of hCD40 and cloned into pcDNA3.0. The vector was subsequently stably transfected into CHO cells. […] For the assay, the transfected cells were incubated with the test antibodies and controls for 30 min at 4° C. and then detected with a-huIgG-PE (Jackson Immunoresearch) 30 min 4° C. Cells were analyzed by flow cytometry with FACS Verse (BD Biosciences).

CD40 (Ancell) = CD40 (Ancell) (UniProt P25942 21-193, limits assumed); assay: ELISA, CD40 coated
Protocol: (§1) ELISA plates were coated with human OX40 (R&D Systems, 3388-OX), CD40 (Ancell), or CD137 (R&D Systems) at 0.1 or 0.5 μg/ml. The ELISA plates were washed with PBST and then blocked with PBST+2% BSA for 1 h at room temperature and then washed again with PBST. The antibodies were added in dilution series to the ELISA plates for 1 h at room temperature and then washed with PBST. Binding was detected using goat anti human kappa light chain HRP, incubated for 1 h at room temperature. SuperSignal Pico Luminescent was used as substrate and luminescence was measured using Fluostar Optima.

CD137 (R&D Systems) = CD137 (R&D Systems) (UniProt Q07011 24-186, limits assumed); assay: ELISA, CD137 coated
Protocol: as §1

[2] = molecular target: T2, Construct 84: full length OX40 (human, UniProt P43489 29-277); assay: flow cytometry, 293-F cells transfected with the construct
T2 construct: whole, on cells
T2 sequence (looked up): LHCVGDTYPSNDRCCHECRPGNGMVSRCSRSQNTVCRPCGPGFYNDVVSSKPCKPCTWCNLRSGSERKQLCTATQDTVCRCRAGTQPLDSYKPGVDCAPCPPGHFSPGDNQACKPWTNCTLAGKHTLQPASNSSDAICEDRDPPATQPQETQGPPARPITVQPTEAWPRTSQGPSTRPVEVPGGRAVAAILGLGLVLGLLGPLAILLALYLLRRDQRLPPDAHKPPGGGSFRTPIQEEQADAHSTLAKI
Protocol: The transfected cells were incubated with human OX40 antibodies, human OX40L (hOX40L, RnD Systems), mouse OX40L (mOX40L, RnD Systems) and controls for 30 min 4° C. and then detected with a-huIgG-PE (Jackson Immunoresearch) 30 min 4° C. Cells were analyzed with FACS Verse (BD Biosciences). Binding to the different chimeric constructs were calculated as relative (mean fluorescence intensity) MFI compared to the binding of the isotype control.

murine OX40 = molecular target: T3, murine OX40 (murine, UniProt P47741 20-211, limits assumed); assay: ELISA
T3 construct: also called mouse OX40
T3 sequence (looked up): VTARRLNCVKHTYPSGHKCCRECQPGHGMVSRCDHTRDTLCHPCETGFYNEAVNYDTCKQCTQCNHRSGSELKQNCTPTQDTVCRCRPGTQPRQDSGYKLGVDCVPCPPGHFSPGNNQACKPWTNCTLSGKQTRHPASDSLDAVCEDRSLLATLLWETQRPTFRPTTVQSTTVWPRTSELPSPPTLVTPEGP

[3] = molecular target: T4, Human OX40 (R&D Systems, 3388-OX) (human, UniProt P43489 29-216); assay: ELISA, plates coated with human OX40, IgG
T4 construct: bought; also called OX40-Fc; Human OX40 (R&D systems, #3358_OX)
T4 sequence (looked up): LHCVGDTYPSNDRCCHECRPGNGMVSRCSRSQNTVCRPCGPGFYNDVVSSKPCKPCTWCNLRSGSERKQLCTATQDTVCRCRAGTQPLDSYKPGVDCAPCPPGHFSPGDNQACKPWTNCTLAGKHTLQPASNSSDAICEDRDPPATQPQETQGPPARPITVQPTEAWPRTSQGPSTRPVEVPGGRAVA
Protocol: as §1

[4] = molecular target: T4, Human OX40 (R&D Systems, 3388-OX); assay: SPR Biacore, human OX40 amine-coupled on CM5, antibody injected, 1:1 Langmuir
Protocol: Human OX40 (R&D systems, #3358_OX) was immobilized to the Biacore™ sensor chip, CM5, using conventional amine coupling. The tested antibodies and controls (serially diluted 1/3 or 1/2 100-2 nM) were analyzed for binding in HBS-P (GE, #BR-1003-68) at a flow rate of […]. The association was followed for 3 minutes and the dissociation for 20 minutes. Regeneration was performed twice using 50 mM NaOH for 60 seconds. The kinetic parameters and the affinity constants were calculated using 1:1 Langmuir model with drifting baseline. […] The kinetic parameters and the affinity constants were calculated using BIAevaluation 4.1 software.

5T4-Fc = molecular target: T5, 5T4-Fc (human, UniProt Q13641 32-355, limits assumed); assay: dual ELISA: OX40-Fc coated, detection with biotinylated 5T4-Fc and streptavidin-HRP, luminescence
T5 construct: obtained from Peter L. Stern, University of Manchester; also called h5T4-Fc; recombinant 5T4
T5 sequence (looked up): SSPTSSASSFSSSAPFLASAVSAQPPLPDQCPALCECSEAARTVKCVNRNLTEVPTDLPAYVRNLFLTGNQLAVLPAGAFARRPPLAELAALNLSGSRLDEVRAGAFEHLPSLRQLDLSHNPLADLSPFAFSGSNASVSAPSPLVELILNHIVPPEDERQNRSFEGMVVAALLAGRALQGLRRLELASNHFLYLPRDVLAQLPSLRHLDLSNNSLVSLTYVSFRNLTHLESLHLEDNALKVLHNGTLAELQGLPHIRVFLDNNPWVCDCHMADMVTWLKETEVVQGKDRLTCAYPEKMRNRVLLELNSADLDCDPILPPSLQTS
Protocol: A dual ELISA was used to detect simultaneous binding of the two targets by the bispecific antibodies. ELISA plates were coated with OX40-Fc (R&D systems, #3388-OX, 0.5 μg/ml) over night at 4° C. followed by blocking with PBST+2% bovine serum albumin (BSA) for 1 h at room temperature (RT). […] Biotinylated 5T4-Fc (0.5 μg/ml), followed by HRP-labelled streptavidin (Pierce #21126) were used for detection. Super signal ELISA Pico Chemiluminescent Substrate (Thermo Scientific, #37069) was used as substrate and luminescence was measured using FLUOstar Optima.

[5] = molecular target: Macaca mulatta OX40 on HEK cells (Macaca mulatta; human); assay: flow cytometry, macOX40-HEK cells; ends of the 95% confidence interval
Protocol: For the assay, the transfected cells were incubated with the test antibodies and controls for 30 min at 4° C. and then detected with a-huIgG-PE (Jackson Immunoresearch) 30 min 4° C. Cells were analyzed by flow cytometry with FACS Verse (BD Biosciences).

Chain of CD137 (R&D Systems) (Q07011 24-186 limits assumed): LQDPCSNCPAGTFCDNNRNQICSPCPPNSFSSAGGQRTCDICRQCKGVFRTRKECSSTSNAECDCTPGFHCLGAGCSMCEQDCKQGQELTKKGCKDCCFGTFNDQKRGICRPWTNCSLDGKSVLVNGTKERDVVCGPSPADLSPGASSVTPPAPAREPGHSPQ
Chain of CD40 (Ancell) (P25942 21-193 limits assumed): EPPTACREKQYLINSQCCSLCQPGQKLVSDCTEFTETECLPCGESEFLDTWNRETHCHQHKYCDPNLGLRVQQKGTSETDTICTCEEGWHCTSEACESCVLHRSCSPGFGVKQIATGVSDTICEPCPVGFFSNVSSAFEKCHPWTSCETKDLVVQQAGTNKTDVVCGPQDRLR

EC50 (read off the curve) [1]: ~0.05 µg/mL | binding result (CD40 (Ancell)): no binding | binding result (CD137 (R&D Systems)): no binding | relative MFI [2]: 31.4 fold over isotype control | binding result (murine OX40): no binding | EC50 [3]: < 1 nM | Kd [4]: 0.811 nM | koff [4]: 0.00139 s⁻¹ | kon [4]: 1.71e+06 M⁻¹ s⁻¹
B1: 1524/1525 (antibody, V domains shown)
VH: EVQLLESGGGLVQPGGSLRLSCAASGFTFGSYYMGWVRQAPGKGLEWVSSIGSYYGYTYYADSVKGRFTISRDNSKNTLYLQMNSLRAEDTAVYYCARHDYGALDYWGQGTLVTVSS
VL: DIQMTQSPSSLSASVGDRVTITCRASQSISSYLNWYQQKPGKAPKLLIYAASSLQSGVPSRFSGSGSGTDFTLTISSLQPEDFATYYCQQYGPSGLFTFGQGTKLEIK
notes: OX40 antibody, tested as IgG

binding result (CD40 (Ancell)): no binding | binding result (CD137 (R&D Systems)): no binding | binding result (murine OX40): no binding | EC50 [5]: 0.16 to 0.242 µg/mL
B2: 1166/1167 (antibody, V domains shown)
VH: EVQLLESGGGLVQPGGSLRLSCAASGFTFGGYYMSWVRQAPGKGLEWVSAISGSGGSTYYADSVKGRFTISRDNSKNTLYLQMNSLRAEDTAVYYCARYDYASMDYWGQGTLVTVSS
VL: B1 VL with G92Y, P93W, S94Y, F97S
binding result (5T4-Fc): no binding (tested: about 80 nM (log[conc ab] 1.9))

EC50 (read off the curve) [1]: ~0.01 µg/mL | binding result (CD40 (Ancell)): no binding | binding result (CD137 (R&D Systems)): no binding | relative MFI [2]: 27.5 fold over isotype control | binding result (murine OX40): no binding | EC50 [3]: < 1 nM | Kd [4]: 0.308 nM | koff [4]: 7.73e-05 s⁻¹ | kon [4]: 251000 M⁻¹ s⁻¹
B3: 1164/1135 (antibody, V domains shown)
VH: EVQLLESGGGLVQPGGSLRLSCAASGFTFYGSSMYWVRQAPGKGLEWVSGIYSSGGYTSYADSVKGRFTISRDNSKNTLYLQMNSLRAEDTAVYYCARGVPHGYFDYWGQGTLVTVSS
VL: not shown
notes: OX40 antibody, tested as IgG
